Measured values as given in patent US20140286957A1 (Teva, published 2014).
Read-outs that look alike come from different tables or passages of the source.

T1: Human CD1d on cells (human, UniProt P15813 20-335)
T1 sequence (looked up): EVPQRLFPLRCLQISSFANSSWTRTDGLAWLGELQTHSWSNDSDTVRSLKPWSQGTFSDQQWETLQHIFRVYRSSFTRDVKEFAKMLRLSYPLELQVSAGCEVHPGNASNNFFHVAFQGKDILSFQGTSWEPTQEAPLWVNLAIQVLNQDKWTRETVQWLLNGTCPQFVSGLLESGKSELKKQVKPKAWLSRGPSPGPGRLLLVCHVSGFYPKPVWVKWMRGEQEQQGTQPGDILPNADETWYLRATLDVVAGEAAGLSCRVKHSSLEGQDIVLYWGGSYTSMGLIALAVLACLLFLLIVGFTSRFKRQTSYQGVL

T2: CD1d tetramer loaded with α-GalCer (ProImmune) (UniProt P15813 20-301, limits assumed)
T2 construct: Bought reagent; also called fluorochrome-conjugated CD1d tetramer
T2 sequence (looked up): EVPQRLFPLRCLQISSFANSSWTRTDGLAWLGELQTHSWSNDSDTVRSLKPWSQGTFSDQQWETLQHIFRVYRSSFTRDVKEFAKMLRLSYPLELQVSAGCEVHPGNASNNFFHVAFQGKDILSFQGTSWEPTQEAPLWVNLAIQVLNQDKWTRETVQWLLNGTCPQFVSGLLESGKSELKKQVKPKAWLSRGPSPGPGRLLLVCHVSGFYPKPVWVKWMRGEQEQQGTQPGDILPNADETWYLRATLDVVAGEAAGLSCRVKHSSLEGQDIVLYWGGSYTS


Assays:
Human CD1d on cells [1] = biological target: T1, Human CD1d on cells; assay: cell-based or functional assay
[2] = biological target: T2, CD1d tetramer loaded with α-GalCer …; assay: flow cytometry, inhibition of CD1d tetramer (10 nM) binding to NKTCR on J.RT3-T3.5 cells
Human CD1d on cells [3] = biological target: T1, Human CD1d on cells; assay: cell-based or functional assay; remark: listed apart in the source
[4] = biological target: Cynomolgus macaque CD1d on cells (cynomolgus macaque); assay: flow cytometry, biotinylated antibody and streptavidin-PE on cynomolgus PBMC, gated live cells
Human CD1d on cells [5] = biological target: T1, Human CD1d on cells; assay: cell-based or functional assay; remark: listed apart in the source
Human CD1d/β2M = biological target: T3, Human CD1d/β2M (human, UniProt P15813 20-301; P61769 21-119); assay: SPR, Protein A purified IgG
T3 construct: also called hCD1d; recombinant human CD1d

Human CD1d on cells [6] = biological target: T1, Human CD1d on cells; assay: cell-based or functional assay; remark: listed apart in the source

Row | Molecule | IFN-γ EC50 (C24:1 βGluCer, moDC) (Human CD1d on cells [1]) [µg/mL] | IFN-γ EC50 (primary CD14+ cells) (Human CD1d on cells [1]) [µg/mL] | IL-2 release EC50 (U-937 + NKTCR cell line) (Human CD1d on cells [1]) [µg/mL] | IL-4 EC50 (C24:1 βGluCer, moDC) (Human CD1d on cells [1]) [µg/mL] | IL-5 EC50 (C24:1 βGluCer, moDC) (Human CD1d on cells [1]) [µg/mL] | IL-13 EC50 (C24:1 βGluCer, moDC) (Human CD1d on cells [1]) [µg/mL] | IL-13 EC50 (primary CD14+ cells) (Human CD1d on cells [1]) [µg/mL] | NKT IFN-γ EC50 (moDC) (Human CD1d on cells [1]) [µg/mL] | TNF-α EC50 (C24:1 βGluCer, moDC) (Human CD1d on cells [1]) [µg/mL] | EC50 [2] [µg/mL] | NKT IFN-γ EC50 (moDC) (Human CD1d on cells [5]) [µg/mL] | NKT IL-4 EC50 (moDC) (Human CD1d on cells [5]) [µg/mL] | Kd (Human CD1d/β2M) [pM] | further results
1 | anti-CD1d antibody 42 (BD Biosciences) | 0.139 | 1.39 | 0.111 | 0.133 | 0.0819 | 0.0523 | 0.844 | > 1 | 0.00569 | 1.44 |  |  |  | NKT IFN-γ EC50 (moDC) (Human CD1d on cells [3]): 0.116 µg/mL; NKT IL-13 EC50 (moDC) (Human CD1d on cells [3]): 0.0175 µg/mL; IFN-γ EC50 (THP-1) (Human CD1d on cells [1]): 0.429 µg/mL; IL-4 EC50 (THP-1) (Human CD1d on cells [1]): 0.0761 µg/mL; IL-4 EC50 (primary CD14+ cells) (Human CD1d on cells [1]): 0.186 µg/mL; IL-5 EC50 (THP-1) (Human CD1d on cells [1]): 0.0647 µg/mL; IL-5 EC50 (primary CD14+ cells) (Human CD1d on cells [1]): 0.108 µg/mL; IL-13 EC50 (THP-1) (Human CD1d on cells [1]): 0.154 µg/mL; NKT IL-4 EC50 (moDC) (Human CD1d on cells [1]): 0.137 µg/mL; NKT IL-5 EC50 (moDC) (Human CD1d on cells [1]): 0.287 µg/mL
2 | irrelevant specificity negative control antibody (human IgG1) |  |  |  |  |  |  |  |  |  |  |  |  |  | percent CD1d-positive cells, Donor 1 [4]: 4.14%; percent CD1d-positive cells, Donor 2 [4]: 4.22%
3 | 402.8.86 (antibody, IgG4, V domains shown, IgG4 (S228P)) VH: QVQLQESGPGLVKPSETLSLTCAVYGGSFSGYYWSWIRQPPGKGLEWIGEINHAGSTNYNPSLKSRVTISVDTSKNQFSLKLSSVTAADTAVYYCARGEIYDFYNSYMDVWGKGTTVTVSS VL: QTVVTQEPSLTVSPGGTVTLTCASSSGAVSSGNFPNWFQQKPGQAPRALIFSASNKHSWTPARFSGSLLGGKAVLTLSGVQPEDEAEYYCLLYFGDTQLGVFGGGTKVTVLG |  |  |  |  |  |  |  |  |  |  | 0.0143 | 0.000721 | 357 | 

The next lines start with results.

Row | IFN-γ EC50 (C24:1 βGluCer, moDC) (Human CD1d on cells [1]) [µg/mL] | IFN-γ EC50 (primary CD14+ cells) (Human CD1d on cells [1]) [µg/mL] | IL-2 release EC50 (U-937 + NKTCR cell line) (Human CD1d on cells [1]) [µg/mL] | IL-4 EC50 (C24:1 βGluCer, moDC) (Human CD1d on cells [1]) [µg/mL] | IL-5 EC50 (C24:1 βGluCer, moDC) (Human CD1d on cells [1]) [µg/mL] | IL-13 EC50 (C24:1 βGluCer, moDC) (Human CD1d on cells [1]) [µg/mL] | IL-13 EC50 (primary CD14+ cells) (Human CD1d on cells [1]) [µg/mL] | NKT IFN-γ EC50 (moDC) (Human CD1d on cells [1]) [µg/mL] | TNF-α EC50 (C24:1 βGluCer, moDC) (Human CD1d on cells [1]) [µg/mL] | EC50 [2] [µg/mL] | NKT IFN-γ EC50 (moDC) (Human CD1d on cells [5]) [µg/mL] | NKT IL-4 EC50 (moDC) (Human CD1d on cells [5]) [µg/mL] | Kd (Human CD1d/β2M) [pM] | Molecule | further results
4 | 0.112 | 0.168 | 0.0773 | 0.113 | 0.0864 | 0.0668 | 0.222 | > 1 | 0.0297 | 0.775 |  |  |  | anti-CD1d antibody 51.1 (eBioscience) | 
5 |  |  |  |  |  |  |  |  |  |  | 0.0247 | 0.0268 | 198 | 402.8.60 (antibody, IgG4, V domains shown, IgG4 (S228P)) VH: QVQLQESGPGLVRPSETLSLTCAVYGGSFSGYYWSWIRQPPGKGLEWIGEINHSGSTNYNPSLKSRVTISVDTSKNQFSLKLSSVTAADTAVYYCARGEIYDFYNSYMDVWGKGTTVTVSS VL: QTVVTQEPSLTVSPGGTVTLTCASSSGAVSSGNFPNWFQQKPGQAPRALIFSASNKHSWTPARFSGSLLGGKAVLTLSGVQPEDEAEYYCLLYFGDTQLGVFGGGTKVTVLG | NKT IFN-γ EC50 (moDC) (Human CD1d on cells [6]): 0.000244 µg/mL; NKT IL-13 EC50 (moDC) (Human CD1d on cells [6]): 0.000189 µg/mL
